The results in this text go back to patent publication US20100056764A1 (Novo Nordisk, published 2010).

Several values for one entry are separate records, joined by “and”; a condition that tells them apart may be missing. Equal values may be shown once.

Test [1] concerns the target T1, rhesus monkey NKG2D on NK and CD8+ T cells (rhesus monkey (Macaca mulatta), UniProt Q9MZJ7 1-216).
T1 construct: whole, on cells; Target on rhesus PBMC; also called rhesus NKG2D
T1 sequence (looked up): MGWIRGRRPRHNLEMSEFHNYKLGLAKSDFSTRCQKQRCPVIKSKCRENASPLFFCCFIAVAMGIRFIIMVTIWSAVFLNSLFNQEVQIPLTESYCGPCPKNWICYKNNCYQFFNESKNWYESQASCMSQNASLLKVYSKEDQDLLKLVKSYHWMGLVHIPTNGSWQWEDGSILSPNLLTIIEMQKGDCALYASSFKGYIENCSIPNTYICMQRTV
Description: flow cytometry on rhesus PBMC, NK cells gated; the legend names 16F16 purified from the original hybridoma. The method, then:
Flow cytometry assay—man and monkey PBMC. Perifieral blood mononuclear cells (PMBCs) were isolated from humans, or from Cynomologous or Rhesus monkey. All animal work were performed according to Danish National Research Council guidelines.
For orientation: A flow cytometer gives signals particle by particle.

Test [2] has as its target T2, recombinant NKG2D-Fc protein (R&D Systems), immobilized on a Biacore CM5 chip (human, UniProt P26718 78-216).
T2 construct: also called NKG2D-hFc; hFc-NKG2D; not shown: Fc portion of the purchased fusion protein
T2 sequence: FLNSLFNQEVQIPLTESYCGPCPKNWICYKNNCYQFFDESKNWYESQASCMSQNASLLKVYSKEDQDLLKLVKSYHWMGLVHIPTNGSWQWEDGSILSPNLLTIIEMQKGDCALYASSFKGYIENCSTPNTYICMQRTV
Put plainly: SPR (Biacore), NKG2D-Fc immobilized on CM5 chip at 1200 RU, antibody in solution, Langmuir fit. The method, then:
Protein immobilisation. […] Recombinant NKG2D-Fc proteins were immobilized covalently to carboxyl groups in the dextran layer on a Sensor Chip CM5 (Biacore GE Healthcare; BR-1000-14). The sensor chip surface was activated with EDC/NHS (N-ethyl-N′-(3-dimethylaminopropyl)carbodiimidehydrochloride and N-hydroxysuccinimide (Biacore GE Healthcare; BR-1000-50)). […] Deactivation of the remaining activated groups was performed using 100 mM ethanolamine pH 8 (Biacore GE Healthcare; BR-1000-50).
[…] The resulting sensorgrams were analysed by global fitting using the Langmuir model. The dissociation constant (KD) was calculated as KD=kd/ka.

The target in test [3] is T3, human NKG2D (hNKG2D) on the cell surface (human, UniProt P26718 1-216).
T3 construct: Carried by BaF/3 cells co-transfected with full-length NKG2D and DAP10, or naturally by human NK, CD8+ T and gamma-delta T cells (PBMC, whole blood); also called cell-surface NKG2D; NKG2D- and DAP10-expressing BaF/3 cells
T3 chain: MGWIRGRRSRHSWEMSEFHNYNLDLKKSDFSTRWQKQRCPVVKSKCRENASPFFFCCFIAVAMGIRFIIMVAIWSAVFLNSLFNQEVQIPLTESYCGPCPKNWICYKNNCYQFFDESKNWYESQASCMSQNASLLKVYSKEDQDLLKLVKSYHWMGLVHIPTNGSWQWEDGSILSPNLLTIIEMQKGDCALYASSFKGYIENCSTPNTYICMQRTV
Description: flow cytometry blocking assay on NKG2D/DAP10-expressing BaF/3 cells: pre-incubation with the antibody, then 1 µg MICA-mFc; y axis % remaining MICA-Fc binding. The method, then: Flow cytometry assays—MICA blockade. […] The cells were then analysed on a B&D FACSArray flow cytometer. The degree of reduction of MICA binding by preincubation was analysed as MFI (mean fluorescence intensity) of binding with pre-incubation in % of binding of MICA without preincubation.

The next test addresses T4, dog NKG2D (dog, UniProt A0A8I3PNL2 1-217).
T4 construct: The assay format for the cross-reactivity test is not described
T4 sequence: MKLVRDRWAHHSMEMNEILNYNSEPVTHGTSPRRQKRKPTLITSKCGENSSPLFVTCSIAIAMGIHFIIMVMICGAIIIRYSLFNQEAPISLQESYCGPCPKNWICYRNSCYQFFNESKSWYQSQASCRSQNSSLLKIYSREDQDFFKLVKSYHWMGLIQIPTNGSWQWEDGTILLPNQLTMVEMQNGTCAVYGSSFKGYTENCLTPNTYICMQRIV
Description: not described.

The next test deals with T5, pig NKG2D (pig, UniProt Q9GLF5 1-214, limits assumed).
T5 construct: The assay format for the cross-reactivity test is not described
T5 sequence (looked up): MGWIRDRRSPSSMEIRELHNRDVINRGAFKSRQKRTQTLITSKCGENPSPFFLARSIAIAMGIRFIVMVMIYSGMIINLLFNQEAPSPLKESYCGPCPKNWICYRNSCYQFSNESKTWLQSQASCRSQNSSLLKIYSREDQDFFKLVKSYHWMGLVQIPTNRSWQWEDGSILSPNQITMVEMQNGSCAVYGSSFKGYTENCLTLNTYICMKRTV
Put plainly: not described.

Test [4] concerns the target T3, human NKG2D (hNKG2D) on the cell surface. Put plainly: flow cytometry, dose-response on NKG2D- and DAP10-expressing BaF/3 cells.

B1: 16F16, fully human anti-hNKG2D monoclonal antibody, recombinantly expressed as IgG4 isotype (antibody, V domains shown)
VH: EVQLVESGGGLVKPGGSLRLSCAASGFTFSSYSMNWVRQAPGKGLEWVSSITSSSSYIYYADSVKGRFTISRDNAKNSLYLQMNSLRAEDTAVYYCARDRRYFDWFPLDYRGQGTLVTVSS
VL: DIQMTQSPSSLSASVGDRVTITCRASQGISSWLAWYQQKPEKAPKSLIYAASSLQSGVPSRFSGSGSGTDFTLTISSLQPEDFATYYCQQYNGYPYTFGQGTKLEIKR
notes: also called 16F16 IgG4; 16F16 (IgG4)
Take B1: the binding result is “binds” in test [1], “no binding” in the test with dog NKG2D and “no binding” in the test with pig NKG2D. The Kd (in general, a measure of binding affinity in units of concentration) in test [2] was determined as 0.178 nM. In test [3], the “IC50 (read off the curve)” value is ~0.02 nM. In test [4], the EC50 (in general, the midpoint of the concentration-response curve) was 0.051 µg/mL and ~0.34 nM.
